# Assay results reported in US20090305339A1, “Polypeptides With Laccase Activity” (VIALACTIA BIOSCIENCES (NZ) LIMITED, priority 2006, published 2009).
# What was measured:
# [1] = pH- and temperature-dependent activity and inactivation profiles; assay type: biochemical
# Description: FIG. 2A represents the effect of various pH values on the activity of recombinant purified RL5 laccase. The activity was measured at 40° C. using 1 mM SGZ (syringaldazine) or DMP as substrate. The buffers (100 mM) used were: citrate (pH 3.0-5.5), MES (pH 5.5-7.0), HEPES (pH 7.0-8.0), Tris-HCl (pH 8.0-9.0) and glycine-NaOH (pH 9.0-12). The activity of RL5 for DMP reached an optimum at a broad pH ranging from 3.5-9.0, being optimal at 4.0-5.0; however, it maintained more than 70% activity at pH 3.5 and 9.0 (FIG. 2A).
# FIG. 2B represents the pH inactivation of purified RL5 laccase in sodium citrate pH 4.5 (indicated with “∘”) or glycine-NaOH pH 9.0 (indicated with “[…]”) over a time period of 240 min. 100% activity in the purified protein sample equals 7.2 units/mg (measured at 40° C.).
# FIG. 2C represents the effect of the temperature on the activity of recombinant purified RL5 laccase. The enzyme activity was assayed at each indicated temperature in sodium citrate pH 4.5 in the presence of 1 mM SGZ or DMP. Activity was monitored at 420 nm. Protein activity increased as the temperature was raised to a maximum at ˜60° C. Therefore, RL5 is stable at high temperatures.
# FIG. 2D represents the thermal inactivation of purified RL5 laccase. Purified enzyme was incubated in vials at 60° C. ([…]) or 65° C. (∘). At the indicated times, samples were withdrawn and tested for laccase activity at 40° C. by using SGZ or DMP as a substrate. 100% activity in the purified protein sample equals 17.2 units/mg.
# Corresponding experiments were performed with BT4389 and YfiH under conditions as described above for FIGS. 2A to 2D (data not shown). The activity of these enzymes reached an optimum at a temperature of 52° C. (for BT4389) and 44° C. (for YfiH) and the thermal activity maintained for more than 80% at 55° C. (for BT4389) and at 50° C. (for YfiH). The activity of both enzymes reached an optimum at a pH range from 4.5 to 6.0 (for BT4389) and from 5.5 to 8.4 (for YfiH), although 80% activity maintained at pH 4.0 to 7.5 (for BT4389) and 5.0 to 9.0 (for YfiH).
# Laccase activity was determined spectrophotometrically in a thermostated spectrophotometer (Perkin-Elmer) at 40° C. in 100 mM sodium citrate buffer, pH 4.5 (1 ml). The standard assay was performed at 530 nm, using SGZ as the oxidation substrate (ε530=64,000 M^−1cm^−1). The reaction was started by adding SGZ, from a stock solution in methanol, to a final concentration of 20 μM. […] Oxidation of phenol red (75 μM) was determined by the decrease in absorbance at 432 nm. The activity:pH and activity:temperature relationships were determined by incubating the enzyme:substrate mixtures at different pH values and constant temperature (40° C.), and at different temperatures (15-80° C.) and constant pH (4.5), respectively. Catalytic constants were derived by fitting the experimental data onto the Michaelis-Menten model. Control measurements without enzyme were carried out to correct for possible chemical oxidation of the substrates.
# [2] = Oxidation of anthracene (HPLC, GC-MS/MS); assay type: biochemical; details: 50 μM anthracene, HOBt, pH 4.5, overnight, room temperature
# Description: Procedures for cloning, expression and purification of laccase are described in the reference: Beloqui, A., et al. (2006), which is made part of the disclosure of the present application.
# HPLC conditions: the HPLC (Varian 9012) was provided with an automatic injector (Autosampler L2200, VWR Hitachi). 10 μL of sample reaction were injected to a C18 Nucleosil 3 μm, 80×4 mm, column (AV-2486, Analisis Vinicos S. A.). The mobile phase consisted of acetonitrile:water 70:30 (v/v) and the flow rate was controlled at 1 mL/min. A PhotoDiode Array Detector (Prostar 335, Varian) with the UV lamp fixed to 251 nm was used to detect the eluted compounds.
molecule,measurement,setting,value
"RL5: polypeptide with laccase activity from bovine rumen metagenome library, amino acid sequence of FIG. 11 (protein, Description of sequence Amino acid sequence of RL5 laccase 3217 to 2414 frame 1 - 262 amino acids (see Figure 11)) MIELEKLDFAKSVEGVEAFSTTRGQVDGRNAYSGVNLCDYVGDDALRVLDARLTLAMQLGVDLDDLVMPRQTHSCRVAVIDERFRALDIDEQEAALEGVDALVTRLQGIVIGVNTADCVPIVLVDSQAGIVAVSHAGWRGTVGRIAKAVVEEMCRQGATVDRIQAAMGPSICQDCFEVGDEVVEAFKKAHFNLNDIVVRNPATGKAHIDLRAANRAVLVAAGVPAANIVESQHCSRCEHTSFFSARRLGINSGRTFTGIYRK",pH optimum of activity,"[1]; 40° C., 1 mM substrate, 100 mM buffers",4.0-5.0 pH
same,activity maintained at pH 3.5 and 9.0,"[1]; DMP, 40° C.",more than 70%
same,broad pH range of activity,"[1]; DMP, 40° C.",3.5-9.0 pH
same,thermal stability,[1]; incubated at 60° C. or 65° C.,"highly stable at this temperatures over a long time period, for at least four hours"
same,100% activity in the purified protein sample,"[1]; pH inactivation experiment, measured at 40° C.",7.2 units/mg
same,temperature optimum of activity,"[1]; sodium citrate pH 4.5, 1 mM SGZ or DMP",~60 °C
same,pH stability,"[1]; sodium citrate pH 4.5 or glycine-NaOH pH 9.0, 240 min",highly stable over a long time period at these pHs
same,100% activity in the purified protein sample,"[1]; thermal inactivation experiment, tested at 40° C., SGZ or DMP",17.2 units/mg
same,oxidation of anthracene,[2],"efficiently oxidize anthracene to 9,10-antraquinone"
